Measured values published in patent US20140248636.

Protein	extent of peptide hydroxylation by MALDI-TOF (RpL8 209-228 peptide (…))	mass increase of the peptide by MALDI-TOF (hydroxylation) (RpL8 209-228 peptide (…))	extent of peptide hydroxylation by MALDI-TOF (RpL27a31-50 peptide (…))	mass increase of the peptide by MALDI-TOF (hydroxylation) (RpL27a31-50 peptide (…))
NO66 (A116-N641), N-terminally hexa-His tagged, recombinant (protein) QTPSARLVPASAPPARLVEVPAAPVRVVETSALLCTAQHLAAVQSSGAPATASGPQVDNTGGEPAWDSPLRRVLAELNRIPSSRRRAARLFEWLIAPMPPDHFYRRLWEREAVLVRRQDHTYYQGLFSTADLDSMLRNEEVQFGQHLDAARYINGRRETLNPPGRALPAAAWSLYQAGCSLRLLCPQAFSTTVWQFLAVLQEQFGSMAGSNVYLTPPNSQGFAPHYDDIEAFVLQLEGRKLWRVYRPRVPTEELALTSSPNFSQDDLGEPVLQTVLEPGDLLYFPRGFIHQAECQDGVHSLHLTLSTYQRNTWGDFLEAILPLAVQAAMEENVEFRRGLPRDFMDYMGAQHSDSKDPRRTAFMEKVRVLVARLGHFAPVDAVADQRAKDFIHDSLPPVLTDRERALSVYGLPIRWEAGEPVNVGAQLTTETEVHMLQDGIARLVGEGGHLFLYYTVENSRVYHLEEPKCLEIYPQQADAMELLLGSYPEFVRVGDLPCDSVEDQLSLATTLYDKGLLLTKMPLALN	hydroxylated to ˜85% as tested by MALDI-TOF analyses	displayed 16 Da increase in mass	–	–
Mina53 (A26-V465), N-terminally hexa-His tagged, recombinant (protein) AAGGPSALNFDSPSSLFESLISPIKTETFFKEFWEQKPLLIQRDDPALATYYGSLFKLTDLKSLCSRGMYYGRDVNVCRCVNGKKKVLNKDGKAHFLQLRKDFDQKRATIQFHQPQRFKDELWRIQEKLECYFGSLVGSNVYITPAGSQGLPPHYDDVEVFILQLEGEKHWRLYHPTVPLAREYSVEAEERIGRPVHEFMLKPGDLLYFPRGTIHQADTPAGLAHSTHVTISTYQNNSWGDFLLDTISGLVFDTAKEDVELRTGIPRQLLLQVESTTVATRRLSGFLRTLADRLEGTKELLSSDMKKDFIMHRLPPYSAGDGAELSTPGGKLPRLDSVVRLQFKDHIVLTVLPDQDQSDEAQEKMVYIYHSLKNSRETHMMGNEEETEFHGLRFPLSHLDALKQIWNSPAISVKDLKLTTDEEKESLVLSLWTECLIQVV	–	–	hydroxylated to ˜95% as tested by MALDI-TOF analyses	displayed a 16 Da increase in mass
